Laboratory results: PMC5758568, “Cryo EM structure of intact rotary H^+-ATPase/synthase from Thermus thermophilus” (Nature Communications, 2018)

T1: B-subunit of the V/A-ATPase from Thermus thermophilus (Thermus thermophilus, UniProt Q56404 1-478)
T1 construct: V/A-type ATPase B-subunit (V1 part), Thermus thermophilus; native subunit in the isolated whole enzyme; Three copies in the enzyme (A3B3); also called subunit B
T1 sequence (looked up): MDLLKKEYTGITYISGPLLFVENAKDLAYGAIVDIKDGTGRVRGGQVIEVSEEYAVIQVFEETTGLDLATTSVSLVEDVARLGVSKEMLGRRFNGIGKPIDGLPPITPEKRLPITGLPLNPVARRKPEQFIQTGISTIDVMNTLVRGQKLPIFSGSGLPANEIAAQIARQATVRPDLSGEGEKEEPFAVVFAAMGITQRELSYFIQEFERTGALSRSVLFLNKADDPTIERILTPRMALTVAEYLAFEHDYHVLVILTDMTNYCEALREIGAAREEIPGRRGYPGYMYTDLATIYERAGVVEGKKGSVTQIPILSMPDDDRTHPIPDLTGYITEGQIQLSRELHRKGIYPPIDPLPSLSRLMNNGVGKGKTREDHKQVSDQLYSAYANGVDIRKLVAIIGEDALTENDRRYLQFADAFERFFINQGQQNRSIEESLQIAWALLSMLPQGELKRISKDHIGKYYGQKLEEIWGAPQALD

T2: d-subunit (subunit C) of the V/A-ATPase from Thermus thermophilus (Thermus thermophilus, UniProt P74902 1-323)
T2 construct: native subunit in the isolated whole enzyme; One copy in the enzyme; also called Vo-d
T2 sequence: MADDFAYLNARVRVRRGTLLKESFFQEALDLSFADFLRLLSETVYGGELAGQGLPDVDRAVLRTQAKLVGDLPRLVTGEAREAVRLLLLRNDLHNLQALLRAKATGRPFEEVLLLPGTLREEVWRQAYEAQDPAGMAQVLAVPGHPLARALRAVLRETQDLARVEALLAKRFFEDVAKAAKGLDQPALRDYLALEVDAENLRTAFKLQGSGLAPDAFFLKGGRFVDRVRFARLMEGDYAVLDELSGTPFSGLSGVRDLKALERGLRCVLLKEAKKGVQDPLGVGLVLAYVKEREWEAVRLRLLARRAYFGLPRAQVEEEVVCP

B1: E-subunit of the V/A-ATPase from Thermus thermophilus (natural protein)
chain: MSKLEAILSQEVEAEIQALLQEAEAKAEAVKREAEEKAKALLQARERALEAQYRAALRRAESAGELLVATARTQARGEVLEEVRRRVREALEALPQKPEWPEVVRKLALEALEALPGAKALVANPEDLPHLEALARERGVELQAEPALRLGVRAVGAEGKTQVENSLLARLDRAWDALSSKVAQALWG
notes: V/A-type ATPase E-subunit (peripheral stalk), Thermus thermophilus; native subunit in the isolated whole enzyme; Two copies in the enzyme (two EG stalks); also called subunit E; EG stalk (with G)
B2: F-subunit of the V/A-ATPase from Thermus thermophilus (natural protein)
chain: MAVIADPETAQGFRLAGLEGYGASSAEEAQSLLETLVERGGYALVAVDEALLPDPERAVERLMRGRDLPVLLPIAGLKEAFQGHDVEGYMRELVRKTIGFDIKL
notes: V/A-type ATPase F-subunit (central rotor), Thermus thermophilus; native subunit in the isolated whole enzyme; One copy in the enzyme; also called subunit F; V1-DF (with D)
B3: D-subunit of the V/A-ATPase from Thermus thermophilus (natural protein, UniProt O87880 1-223, looked up)
chain: MSQVSPTRMNLLQRRGQLRLAQKGVDLLKKKRDALVAEFFGLVREAMEARKALDQAAKEAYAALLLAQAFDGPEVVAGAALGVPPLEGVEAEVENVWGSKVPRLKATFPDGALLSPVGTPAYTLEASRAFRRYAEALIRVANTETRLKKIGEEIKKTTRRVNALEQVVIPGIRAQIRFIQQVLEQREREDTFRLKRIKGKIEAREAEEEGGRPNPQVEIGAGL
notes: V/A-type ATPase D-subunit (central rotor shaft), Thermus thermophilus; native subunit in the isolated whole enzyme; One copy in the enzyme (D1F1d1c12 rotor); also called subunit D; V1-DF (with F)

Key:
Experiment in all cases: cryo-EM structure; single particle cryo-EM of the whole V/A-ATPase in TE buffer (20 mM Tris-HCl pH 8.0, 0.1 mM EDTA) with 0.003% LMNG and 100 mM NaCl, no nucleotide added; three rotational states (5.0, 6.7, 7.5 Å), focused V1EGd map of state1 4.7 Å; crystal structures and homology models fitted by MDFF
[1] = target: c-subunit (subunit L) of the V/A-ATPase from Thermus thermophilus, with His3 tag on the C-terminus (Thermus thermophilus)
[2] = target: T1, B-subunit of the V/A-ATPase from …; details: both partners purified
[3] = target: B3; details: both partners purified
[4] = target: T2, d-subunit (subunit C) of the V/A-ATPase …; details: both partners purified

**Q.** Which stoichiometry N [1] does the source give for “c-subunit (subunit L) of the V/A-ATPase from Thermus thermophilus, with His3 tag on the C-terminus (natural protein)” here?
**A.** 12

**Q.** Does B1 bind [2]?
**A.** binds

**Q.** Does B2 bind [3]?
**A.** binds

**Q.** Does B3 bind [4]?
**A.** binds
